Assay [1] concerns the target S protein of the SARS-CoV-2 Omicron (B.1.1.529) strain, his-tagged (SARS-CoV-2, Omicron (B.1.1.529) strain) (UniProt P0DTC2). Description: BLI. A general note: Biolayer interferometry detects binding as a change in optical thickness at a sensor tip.
Assay [2] has as its target RBD of the SARS-CoV-2 Delta (B.1.617.2) strain (SARS-CoV-2, Delta (B.1.617.2) strain) (UniProt P0DTC2). Description: ELISA. For orientation: In an ELISA, binding on a coated surface is turned into a signal by an enzyme label.

In the case of “CR3022 SH100D+SH103Y+IL34W triple mutant (IgG1 format) (antibody)”, the fold increase in binding affinity (BLI) against wild-type CR3022 in assay [1] amounted to 6.1 fold.

“CR3022 SH100D+SH103Y+SL33R triple mutant (IgG1 format) (antibody)”: in assay [2], the EC50 (in general, the midpoint of the concentration-response curve) was 0.06 nM and the fold lower ELISA EC50 than wild-type CR3022 came out at 3.4 fold. This substance displayed a fold increase in binding affinity (BLI) against wild-type CR3022 in assay [1] of 4.1 fold.

The values are drawn from paper PMC11379722.
